In this test the target is T1, Gdi1 (yeast, UniProt P39958 1-451).
T1 sequence (looked up): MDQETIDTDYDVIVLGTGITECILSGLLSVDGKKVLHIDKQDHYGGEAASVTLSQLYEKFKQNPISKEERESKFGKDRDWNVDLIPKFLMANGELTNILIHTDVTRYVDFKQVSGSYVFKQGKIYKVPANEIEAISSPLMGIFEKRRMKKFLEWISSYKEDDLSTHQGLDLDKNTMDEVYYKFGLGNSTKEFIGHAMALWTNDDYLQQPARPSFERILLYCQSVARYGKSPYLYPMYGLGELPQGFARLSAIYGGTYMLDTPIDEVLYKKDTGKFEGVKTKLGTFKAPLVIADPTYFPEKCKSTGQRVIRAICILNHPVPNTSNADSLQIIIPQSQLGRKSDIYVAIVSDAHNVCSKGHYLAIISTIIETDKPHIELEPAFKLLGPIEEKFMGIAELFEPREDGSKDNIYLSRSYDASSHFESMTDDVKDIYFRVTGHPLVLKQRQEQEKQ
In words: SEC. In general terms: SEC sorts molecules by how far they enter the pores of the column.

B1: prenylated Rab6-mantGDP (natural protein, S. cerevisiae, UniProt Q99260 1-215, looked up)
chain: MSRSGKSLTKYKIVFLGEQGVGKTSLITRFMYDTFDDHYQATIGIDFLSKTMYLDDKTIRLQLWDTAGQERFRSLIPSYIRDSRVAIIVYDITKRKSFEYIDKWIEDVKNERGDENVILCIVGNKSDLSDERQISTEEGEKKAKLLGAKIFMETSTKAGYNVKALFKKIAKSLPEFQNSESTPLDSENANSANQNKPGVIDISTAEEQEQSACQC
modifications: C-terminal cysteines prenylated (geranylgeranyl)
As for B1, the binding result was “binds”.

(Values after PMC11618376 (Nature Communications, 2024).)
